Source: patent US20260167699A1 (Chugai, published 2026)

B1: GpH7-A5/GpH7-B3 variant H268_02A/GpL16-k0 (antibody, human IgG1, kappa)
heavy 1: not shown
heavy 2: not shown
light: DIVMTQSPLSLPVTPGEPASISCQASESLVHSNRNTYLHWYLQKPGQSPQLLIYKVSNRFSGVPDRFSGSGSGTDFTLKISRVEAEDVGVYYCSQNTHVPPTFGQGTKVEIERTVAAPSVFIFPPSDEQLKSGTASVVCLLNNFYPREAKVQWKVDNALQSGNSQESVTEQDSKDSTYSLSSTLTLSKADYEKHKVYACEVTHQGLSSPVTKSFNRGEC
notes: He Ab; copies: 1 + 1 + 2
B2: GpH7-A5/GpH7-B3 variant I332_06M/GpL16-k0 (antibody, human IgG1, kappa)
heavy 1: not shown
heavy 2: not shown
light: B1 light
notes: He Ab; copies: 1 + 1 + 2
B3: GpH7-A5/GpH7-B3 variant L234_13S/GpL16-k0 (antibody, human IgG1, kappa)
heavy 1: not shown
heavy 2: not shown
light: B1 light
notes: He Ab; copies: 1 + 1 + 2
B4: GpH7-A5/GpH7-B3 variant I332_13S/GpL16-k0 (antibody, human IgG1, kappa)
heavy 1: not shown
heavy 2: not shown
light: B1 light
notes: He Ab; copies: 1 + 1 + 2
B5: GpH7-A5/GpH7-B3 variant K326_02A/GpL16-k0 (antibody, human IgG1, kappa)
heavy 1: not shown
heavy 2: not shown
light: B1 light
notes: He Ab; copies: 1 + 1 + 2
B6: GpH7-A5/GpH7-B3 variant L234_03V/GpL16-k0 (antibody, human IgG1, kappa)
heavy 1: not shown
heavy 2: not shown
light: B1 light
notes: He Ab; copies: 1 + 1 + 2
B7: GpH7-A5/GpH7-B3 variant L234_02A/GpL16-k0 (antibody, human IgG1, kappa)
heavy 1: not shown
heavy 2: not shown
light: B1 light
notes: He Ab; copies: 1 + 1 + 2
B8: GpH7-A5/GpH7-B3 variant K326_14T/GpL16-k0 (antibody, human IgG1, kappa)
heavy 1: not shown
heavy 2: not shown
light: B1 light
notes: He Ab; copies: 1 + 1 + 2
B9: GpH7-A5/GpH7-B3 variant L234_05P/GpL16-k0 (antibody, human IgG1, kappa)
heavy 1: not shown
heavy 2: not shown
light: B1 light
notes: He Ab; copies: 1 + 1 + 2
B10: GpH7-A5/GpH7-B3 variant I332_10E/GpL16-k0 (antibody, human IgG1, kappa)
heavy 1: not shown
heavy 2: not shown
light: B1 light
notes: He Ab; copies: 1 + 1 + 2
B11: GpH7-A5/GpH7-B3 variant K326_20W/GpL16-k0 (antibody, human IgG1, kappa)
heavy 1: not shown
heavy 2: not shown
light: B1 light
notes: He Ab; copies: 1 + 1 + 2
B12: GpH7-A5/GpH7-B3 variant K326_08L/GpL16-k0 (antibody, human IgG1, kappa)
heavy 1: not shown
heavy 2: not shown
light: B1 light
notes: He Ab; copies: 1 + 1 + 2
B13: GpH7-A5/GpH7-B3 variant H268_13S/GpL16-k0 (antibody, human IgG1, kappa)
heavy 1: not shown
heavy 2: not shown
light: B1 light
notes: He Ab; copies: 1 + 1 + 2
B14: GpH7-A5/GpH7-B3 variant H268_15Y/GpL16-k0 (antibody, human IgG1, kappa)
heavy 1: not shown
heavy 2: not shown
light: B1 light
notes: He Ab; copies: 1 + 1 + 2
B15: GpH7-A5/GpH7-B3 variant H268_11K/GpL16-k0 (antibody, human IgG1, kappa)
heavy 1: not shown
heavy 2: not shown
light: B1 light
notes: He Ab; copies: 1 + 1 + 2
B16: GpH7-A5/GpH7-B3 variant K326_06M/GpL16-k0 (antibody, human IgG1, kappa)
heavy 1: not shown
heavy 2: not shown
light: B1 light
notes: He Ab; copies: 1 + 1 + 2
B17: GpH7-A5/GpH7-B3 variant K326_05P/GpL16-k0 (antibody, human IgG1, kappa)
heavy 1: not shown
heavy 2: not shown
light: B1 light
notes: He Ab; copies: 1 + 1 + 2
B18: GpH7-A5/GpH7-B3 variant L235_02A/GpL16-k0 (antibody, human IgG1, kappa)
heavy 1: not shown
heavy 2: not shown
light: B1 light
notes: He Ab; copies: 1 + 1 + 2
B19: GpH7-A5/GpH7-B3 variant K326_19Q/GpL16-k0 (antibody, human IgG1, kappa)
heavy 1: not shown
heavy 2: not shown
light: B1 light
notes: He Ab; copies: 1 + 1 + 2
B20: GpH7-A5/GpH7-B3 variant L234_20W/GpL16-k0 (antibody, human IgG1, kappa)
heavy 1: not shown
heavy 2: not shown
light: B1 light
notes: He Ab; copies: 1 + 1 + 2
B21: GpH7-A5/GpH7-B3 variant I332_16H/GpL16-k0 (antibody, human IgG1, kappa)
heavy 1: not shown
heavy 2: not shown
light: B1 light
notes: He Ab; copies: 1 + 1 + 2
B22: GpH7-A5/GpH7-B3 variant H268_14T/GpL16-k0 (antibody, human IgG1, kappa)
heavy 1: not shown
heavy 2: not shown
light: B1 light
notes: He Ab; copies: 1 + 1 + 2
B23: GpH7-A5/GpH7-B3 variant K326_15Y/GpL16-k0 (antibody, human IgG1, kappa)
heavy 1: not shown
heavy 2: not shown
light: B1 light
notes: He Ab; copies: 1 + 1 + 2
B24: GpH7-A5/GpH7-B3 variant H268_12R/GpL16-k0 (antibody, human IgG1, kappa)
heavy 1: not shown
heavy 2: not shown
light: B1 light
notes: He Ab; copies: 1 + 1 + 2
B25: GpH7-A5/GpH7-B3 variant L234_06M/GpL16-k0 (antibody, human IgG1, kappa)
heavy 1: not shown
heavy 2: not shown
light: B1 light
notes: He Ab; copies: 1 + 1 + 2
B26: GpH7-A5/GpH7-B3 variant K326_10E/GpL16-k0 (antibody, human IgG1, kappa)
heavy 1: not shown
heavy 2: not shown
light: B1 light
notes: He Ab; copies: 1 + 1 + 2
B27: GpH7-A5/GpH7-B3 variant H268_10E/GpL16-k0 (antibody, human IgG1, kappa)
heavy 1: not shown
heavy 2: not shown
light: B1 light
notes: He Ab; copies: 1 + 1 + 2
B28: GpH7-A5/GpH7-B3 variant I332_14T/GpL16-k0 (antibody, human IgG1, kappa)
heavy 1: not shown
heavy 2: not shown
light: B1 light
notes: He Ab; copies: 1 + 1 + 2
B29: GpH7-A5/GpH7-B3 variant H268_04F/GpL16-k0 (antibody, human IgG1, kappa)
heavy 1: not shown
heavy 2: not shown
light: B1 light
notes: He Ab; copies: 1 + 1 + 2
B30: GpH7-A5/GpH7-B3 variant K326_13S/GpL16-k0 (antibody, human IgG1, kappa)
heavy 1: not shown
heavy 2: not shown
light: B1 light
notes: He Ab; copies: 1 + 1 + 2

molecular target: T1, FcγRIIIa extracellular domain, C-terminal His tag (human, UniProt P08637 17-208); assay: SPR, binding activity relative to GpH7-A5/GpH7-B3/GpL16-k0 (=100)
T1 construct: extracellular domain; also called 3a
T1 sequence (P08637 other isoform, or with tags, fused parts or gaps): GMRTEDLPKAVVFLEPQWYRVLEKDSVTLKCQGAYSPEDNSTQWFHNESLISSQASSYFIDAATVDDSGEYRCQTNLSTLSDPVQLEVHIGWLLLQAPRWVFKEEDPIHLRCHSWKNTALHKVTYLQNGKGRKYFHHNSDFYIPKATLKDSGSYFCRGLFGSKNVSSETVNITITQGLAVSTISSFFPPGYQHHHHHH

He/Con 3a [%] | Binder
121 | B1
92.5 | B2
68.1 | B3
95.6 | B4
130 | B5
88.3 | B6
69.7 | B7
140 | B8
85.1 | B9
213 | B10
93.7 | B11
126 | B12
121 | B13
96.5 | B14
81.6 | B15
127 | B16
117 | B17
72 | B18
117 | B19
103 | B20
89 | B21
90.3 | B22
124 | B23
76 | B24
82.9 | B25
138 | B26
184 | B27
110 | B28
96 | B29
118 | B30
